The assay has as its target DLIC1[388-523] (human). In words: ITC.

The values that follow come from article doi:10.1101/2021.10.11.463801.

B1: JIP4[1-103] (domain or fragment)
chain: MELEDGVVYQEEPGGSGAVMSERVSGLAGSIYREFERLIGRYDEEVVKELMPLVVAVLENLDSVFAQDQEHQVELELLRDDNEQLITQYEREKALRKHAEEKF
In the case of B1, the dissociation constant (Kd) (as a rule, the equilibrium constant for the complex coming apart) was 4000 nM and the stoichiometry N (DLIC1-C molecules per RH1 dimer) worked out at 2.

B2: JIP3[1-108] (domain or fragment)
chain: MMEIQMDEGGGVVVYQDDYCSGSVMSERVSGLAGSIYREFERLIHCYDEEVVKELMPLVVNVLENLDSVLSENQEHEVELELLREDNEQLLTQYEREKALRRQAEEKF
Regarding B2, the Kd stood at 1000 nM and the stoichiometry N (DLIC1-C molecules per RH1 dimer) came to 2.
